The nature of the data set: label from the status in PepcDB records.

The values below come from a protein production outcome set (Wang et al. 2014).

As for “MLSRRASLAAIAIGLIAAAGAAHAQSPLGIGSAEPSFSLGGPFAPLMQWINVHQQMFYRALTGALKAMREDSWALGSLIGLSFAYGVFHAAGPGHGKAVISSYMIANETQLRRGILISFVSALIQGLMAIGLVGAAWLVLRGTSITMTKATQAMEIASFAMVALFGAWLLVRKLWSLRIRREPVPVFATAGEAPAARTNGMGTGLRFQGKPVFADHDHNGTGDLCTACGKSHAPDPMLLKGKNFSLHEAWSAIIAVGLRPCSGAIIVMSFALLNGLYLGGVLSVLAMSLGTAITVSALAIMAVSAKGLAVRFAGPGSRKAAGISHAIEIAGALFVLIMGLLLLGASLQF”, the protein production entry is listed as “failed”.

With “MLSYPGELQGCRVILYLVGHHLYLIPTTISMCGCPEEGAYMRRLWGYISIITATIFFGISATLDKIMLSSMHPVTIGAYTYIIAGIFLFFIRETPLREHVLNAINRKGESEARIKRNDYLILLLTALLSTVIAPLLFLTGLGDTTAVNASLILNVEVLFIILLGYLIFRETLQLKDFLGIVLIILGAVYLLTEGDFSTILRNVAVTGNFLVMAAAFFWSLDTVLSKFLSRKRDLIFISGVKSSVGGFVLLIIMLILGINTELPLEMLPYALGVSVFSIGCSFILIYIAIREIGASMVGALFPLSSLFGAIFAFIILREPFSIMQGISGIVMLTGVFILYWNGK”, the protein production entry is recorded as “failed”.

For “MLTDALLAFLHFTAIFVLVTLMAAEAVVLRPDMPPSAVRRLSQYDFFYFLSAMVVLATGLLRLFYGAKGVDFYLHNPWFHAKITVFVLIALATLPPTFAFARWRKQSLKLPEFVPTPAEIKKVRRWVMIEAHAFILLPLCAVMMARGIGIH”, the protein production result is on record as “failed”.

As to “MLTDSGGGGTSFEEDLDSVAPRSAPAGASEPPPPGGVGLGIRTVRLFGEAGPASGVGSSGGGGSGSGTGGGDAALDFKLAAAVLRTGGGGGASGSDEDEVSEVESFILDQEDLDNPVLKTTSEIFLSSTAEGADLRTVDPETQARLEALLEAAAFADPEVLRRLTSSVSCALDEAAAALTRMKAENSHNAGQVDTRSLAEACSDGDVNAVRKLLDEGRSVNEHTEEGESLLCLACSAGYYELAQVLLAMHANVEDRGNKGDITPLMAASSGGYLDIVKLLLLHDADVNSQSATGNTALTYACAGGFVDIVKVLLNEGANIEDHNENGHTPLMEAASAGHVEVARVLLDHGAGINTHSNEFKESALTLACYKGHLDMVRFLLEAGADQEHKTDEMHTALMEACMDGHVEVARLLLDSGAQVNMPADSFESPLTLAACGGHVELAALLIERGANLEEVNDEGYTPLMEAAREGHEEMVALLLAQGANINAQTEETQETALTLACCGGFSEVADFLIKAGADIELGCSTPLMEASQEGHLELVKYLLASGANVHATTATGDTALTYACENGHTDVADVLLQAGADLDKQEDMKTILEGIDPAKHQVRVAFDACKLLRKE”, the protein production entry is listed as “failed”.

For the sequence “MLTHYAALRASDRETFLIIELGGLGGRMGLVFVVMIVVLLYAPVHVPTYVGTLLGLLFVSIAFEIWMIVRRMRQDGLMARD”, the protein production entry is “failed”.

Consider “MLTKVIEQAKIDHFTKWFERADKIVIVSHVSPDGDAIGSSLGLYHFLDSQEKTVNVIVPNAFPDFLRWMPGSKDILLYDRYKDFADKLIAEADVICCLDFNALKRIDEMADAVAASPARKVMIDHHLYPEEFCKITMSYPKISSTSELIFRLICRMGYFSDISKEGAECIYTGMMTDTGGFTYNSNNREIYFIISELLSKGIDKDDIYRKVYNTYSESRLRLMGYVLSNMVVYSDYNAALISLTKEEQSKFDYIKGDSEGFVNIPLTIKNVCFSCFLREDTEKPMIKISLRSVGTFPCNQLAAEFFNGGGHLNASGGEFFGTIEEAKAVFEQALEKYKPLLTAKSLEHHHHHH”, for which the protein production entry is on record as “not failed”.

Consider “MLTLLNLLSAVTLLVWGTHIVRTGILRVFGSNLRRIISQNMDKRPLAFIAGILVTAMVQSSNATAMLVTSFVGQGLMAMTPALAIMLGADVGTALMARVLTFDLSWLSPLLIFLGVIFFLSRKQTRAGQLGRVGIGLGLIILALELIVQAAAPITQAQGVKVLFASLTGDIMLDALVGAMFAMISYSSLAAVLLTATLAGAELISLPVAIGLVVGANIGSGLLAFISTSMQNAAGRRVALGSLLYKLIGLVLIIPVLHPLVAWMDSLSFSPQELVIGFHLLYNTLRCLIMLPTVKPMGRLCNALLPEREIGNGQVRPRHLDASALETPSLALANAARETLRLGDIVDSLLEAMLGALRGTQTALPQQVRALGEDAEALYSAIKLYLAQMSREDLSEQDNRRWAEIIELSINLKLACDLIERMLRKVQQQKTSQRREFSQVGLEELTGLQEQLLANLRLGLSVFLSADPESARLLLREKRRFRAQERRLAHAHVSRLQRKVVQSIETSSLHLELIADMKRLNSLFCSSAYVVLGGSDTGGLMLDSVPDEARLP”, for which the protein production entry is “failed”.

For “MLTLLSPCTLPVIPLLFASVRGRRGQLAIMLAGMALMFGAVSWLVTVASGWVVNLTLAGRGLALAFFALVGLSLLSQRVAQRLTSPLVALGNQLNDASSRQRGWIGSLLAGLAVGLLWAPCAGPVLGAILSLGFVHPGQATTGGLLLAYGSGGALMLFLLGWCGAALIARLRRGQAFGERLRRLAGGAMLASVALIASGGDRYLQSAGGLSQALEQRLAARLPQPEQKTSLQPIAAPQPSSAMPSLAGGSAWINSPALTPERLKGKVVLVDFWTRECINCQHTLPYVRDWANKYRAAGLVVIGVHTPEYPWERSLPLLRQAVKDWRITYPVVADNEYAIWNAFGNQYWPAHYIFDARGQLRYTAFGEGDYARQEQVIQQLLQESKA”, the protein production result is on record as “failed”.

Turning to “MLTSFKLHSLKPYTLKSSMILEIITYILCFFSMIIAFVDNTFSIKIYNITAIVCLLSLILRGRQENYNIKNLILPLSIFLIGLLDLIWYSAFKVDNSPFRATYHSYLNTAKIFIFGSFIVFLTLTSQLKSKKESVLYTLYSLSFLIAGYAMYINSIHENDRISFGVGTATGAAYSTMLIGIVSGVAILYTKKNHPFLFLLNSCAVLYVLALTQTRATLLLFPIICVAALIAYYNKSPKKFTSSIVLLIAILASIVIIFNKPIQNRYNEALNDLNSYTNANSVTSLGARLAMYEIGLNIFIKSPFSFRSAESRAESMNLLVAEHNRLRGALEFSNVHLHNEIIEAGSLKGLMGIFSTLFLYFSLFYIAYKKRALGLLILTLGIVGIGLSDVIIWARSIPIIIISAIVLLLVINNRNNTIN”, the protein production entry was “failed”.

Regarding “MLTTFLATVIGWYLVIVSLFLLFHNEHAKSAMAEIIAHRGSQLIMAIVTLITGLLLVVSHNIWVMGWPVVITLFAWLVLLGGLIRFLCPDTAVRIGQSFVDNPMRLKIAAVIFFIIGLFLLFNVYYVYLK”, the protein production entry is given as “failed”.

With “MLTTLQNIMKLPNEIDEYLASRNFSENTRSNYHYDLVSLQAFFEDKSLTTENLELYKIQISNLSPAAQRRKISSANQYLLFLYQRQKVDQYFKIKQVVQKKSQTAQSYHPMIKEFPEFYGPLTCPGQFLALLILEFGLNFAEIQKLKWENFNWNFKYLTIEKAGIKRVLPIREKFAIRVKAINNADELFAKSRQFLYTELKKFTNYSSKEIREQYILHQVKAGKSIYELATLLGLTTITTLEKYYR”, the protein production entry is “failed”.

On to “MLTTNASSKIFSKASTAELVGHTRKVHCLSWNPKGGLLGSGGVDCVARIWDVEKLQQKAELEGHTSSIEQLKWDPTANVFFVSASLDHKVLFWDLRARNSEPVASVETQGENINLAWSQDGVYCAVGDKDDNLSFIDVRKFDFFERFQFAEEVNEFKWSPSGPFFFMTLGKEVLVFRWPTMEQQLRLQVHADRCYCLEFDRSGRYFALGGADSIISLWETEYMLCTWTVDRLEYPIRTISFSHDGQFIAAGSEDSVIDISDILNGRQTYALGVKGATNVVAWHPSRHLLAYATEEEYSRDGVAIHLYGTISKDNI”, for which the protein production result was “failed”.

Consider “MLTVTFTVSNTGDRAGAAVPQVYPGFPNTTIDRCVRELKAFRRVELEPGQRQTVTVALTRRDLSYWDILPHPLRSYAVGSILEHHHHHH”, for which the protein production entry was “failed”.

As for “MLVDSQYKECVKEIINWGLFLYSEESRRNLIHDSLVELRCHFTWELVIKDNYMPDLEAKILETEFLDTNYNMGMHNLMAYVRHLKGEQEEALQSLKEAEALIEGEQLGKRSLVTWGNCAWVHYHRGSLAEAQIYLDKVENVCREFASPFRYRMECAEIDCEEGWALLKCGGSNCTRAMACFAKALQEEPENPEYNAGYAITAFRMDFSNEISLEPLRKAVRLNPEDPHLKVLLALKLQDLGKQDEAEKHIEEALPKIPSRNNIFGYVAKFYRRKGCVEEALEFLERALKTKPSSVYLHFQIGLCHKSRVFQIKEATNMHPKGKDRERADQSIRSAIYYFEKTLDLKPTYERAYIDLAEMYAESKQFEEAEEAFQKVLSMLSNLEVHMQQEIHFRYGKFQQFHMKSENIAITHYLKGLKIEVTSIFRDKLLKALQKLAERRMQQNVHVLESLSLLGFVYRLKGDTRKAMSCYEKALRLTEELNPEF”, the protein production entry was “failed”.

“MLVFEIIIGLLLAGAALTALSRRIGTPYPALVALAGAALALVPGTPTLVLEPDLALTLFVAPVLLDAAYDASQRDLRASWRTVAGLAVGAVALTVVVVAVVARALVPGMPWAVAVALGAIVAPPDAAAATAVLGQLRPPHRLMVILEGESLFNDASALLVYRLAVGAALAGALSPVEVLPPLLASTAGSVALGYGLSRVIPPLIARIEDVPIAVVVQFCGTFAVWIVAERLHLSGILTVVVFAMASAQRAAGQMAARVRIPSYAVWGFAVFVLNVLAFILVGFQLKAILGRIDAPTLLRYAGVAGAVCLAAVVARIAWVSGTAAVSRLRCRPTEDGSKARPDTIGLSPRGAAVVGWCGMRGIVTLAAALALPTGARGAPPFPHRDLVVFTAFAVVLGTLVLQGMTLRPLMRALRLEGDRSVDREVRLARVETLRAGLSATDGAAGDPLSDVLRRRYELLLRGAEAELRGGAAPQAPPAGGDVDPRAGAAVARRAVEAERGRLLALRSDGTIGDAAFQRVEEELDLEELSLRRLARDGAREAS”: the protein production result is listed as “failed”.

On to “MLVLDVAARVWPFFLLVAAGVALSRLRLLDARMTQGLSAYVYWVGFPALLIHSLSRLGRPGPELWSGLAAYAAVGLAVMASLVVGGRALGWSRPERAGAAMAAGVGNSAFLAVPVTAAVLGAETARLVAGAIAADFVVLAAAGVGLLGWAAGRSVWRAMAQAFQNPVVIAALLGLLLALLNLALPQPLDRAVGLAAASGSPVGLVALGAALGLPQTEDEPGPRAGPVVLAALAKLLAFPLLVWLAIGLTPAPAEFRTGATLVAAAPTAVNVFIQTRAYGVWPRGAARIVALTTALAIVSLSLVAILLTARVS”, for which the protein production entry is recorded as “failed”.

As for “MLVLYRASIRFKLRKNKNSFDSSNYFYGGNNICIINTKWGKHSGIGGYAEIIDTLVGNFTNISSWAKIGIRDHIHTNFLICDFVYKDNDHIMPPGISSFEDYWVKIGNDVWVGTNVTILRGVEVGDGAVIAAGSVVTKSIPPYAIVGGNPAKFIKWRFPFEVREKLLEIKWWDWDDDLIKEKKDYLQNLVGFDMDKYKIEYRKRKEDLFYLEHHHHHH”, the protein production entry was “not failed”.

For “MLVQKNEAFLWLHFYLISNFIVVIMQMFILVMYYLIIVDHSFVELNEQVNPLFSFLLFVFHSDLSFFPVLVQLIF”, the protein production result is reported as “failed”.

As to “MLVSLIYVFKQVLSANLDLFYILSLILLIKSLIKKEKYLIKLLYVIYIILFYTGIQIIFLNTSIDLIRYFVSSFKLILNFNLLFYIIKKIKFININKIIKNISYIFFIILVFALILRNNNILWRLNDYVNTFEEVRLRFFYYEPSELGFQVAIIIIIFVFKIYTKKIINKKDFCIIIFLSIILSLTSAYGAIISLMLALIPILFKSFKLNSYKKLLIAYSIILISIVIIYLNFYKISDSYIVQRGLSIISGEDGSVNYRFDIGLNIMINALKNTNLLGVGLSNANTDNFIIEYSNFGLVEVIANSFMYVITELGVLAVVFLVYLLIKCLISAKINNSILKLSLIIYIFSYQIAGGYFSNPTNWIIYGIILSNIKDEELFGRKD”, the protein production result is given as “failed”.

Consider “MLYIDKATILKFDLEMLKKHRRAIQFIAVLLFIVGLLCISFPFVSGDILSTVVGALLICSGIALIVGLFSNRSHNFWPVLSGFLVAVAYLLIGYFFIRAPELGIFAIAAFIAGLFCVAGVIRLMSWYRQRSMKGSWLQLVIGVLDIVIAWIFLGATPMVSVTLVSTLVGIELIFSAASLFSFASLFVKQQ”, for which the protein production result is listed as “failed”.
